Measurements published in patent US20120316071A1 (published 2012).
Blank lines part the entries; values can stand above or below the binder they belong to.

Experiments:
[1] = target: T1, rHuman EGF R/Fc Chimera, CF (R&D Systems Cat#344-ER) (human, UniProt P00533 25-645); test: ECL multispot (MSD) binding assay; antigen spotted on plate, Fab in solution, Ru-labelled anti-kappa detection;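 further: purified Fab in 1% BSA TBST incubated 1 h at 20 °C with shaking, signal compared with each well's blank, signal/blank ratio of 4 or above counted as binder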
T1 construct: Bought from R&D Systems; also called epidermal growth factor receptor; Fc part of the bought chimera not given

[2] = target: T2, rHuman HGF R/c-MET/Fc Chimera, CF (R&D Systems Cat#358-MT/CF) (human, UniProt P08581 25-932); test: as above
T2 construct: Bought from R&D Systems; also called HGF R/Fc; hepatocyte growth factor receptor; Fc part of the bought chimera not given

[3] = target: T3, rHuman IGF-1 sR, CF (R&D Systems Cat#391-GR) (human, UniProt P08069 31-932); test: as above
T3 construct: Bought from R&D Systems as a soluble receptor; also called insulin-like growth factor-1 soluble receptor

[4] = target: T4, Recombinant Human DLL4 (R&D Systems Cat#1506-D4/CF) (human, UniProt Q9NR61 27-524); test: as above
T4 construct: Bought from R&D Systems; also called delta-like protein 4; rHuman DLL4

[5] = target: T5, rHuman Erythropoietin R/Fc Chimera, CF (R&D Systems Cat#963-ER) (human, UniProt P19235 25-250); test: as above
T5 construct: Bought from R&D Systems; also called EPO R; EPO R/Fc; Fc part of the bought chimera not given
T5 sequence (looked up): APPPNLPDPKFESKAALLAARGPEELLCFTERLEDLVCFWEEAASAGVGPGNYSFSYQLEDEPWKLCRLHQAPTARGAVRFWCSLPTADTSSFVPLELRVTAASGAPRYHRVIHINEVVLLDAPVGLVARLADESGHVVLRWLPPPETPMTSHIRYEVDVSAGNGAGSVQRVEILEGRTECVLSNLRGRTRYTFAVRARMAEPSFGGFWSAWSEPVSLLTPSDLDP

[6] = target: T6, rHuman P-Cadherin/Fc Chimera, CF (R&D Systems Cat#861-PC) (human, UniProt P22223 108-654); test: as above
T6 construct: Bought from R&D Systems; Fc part of the bought chimera not given

[7] = target: T7, rHuman Notch-1/Fc Chimera, CF (R&D Systems Cat#3647-TK) (human, UniProt P46531 19-526); test: as above
T7 construct: Bought from R&D Systems; Fc part of the bought chimera not given

[8] = target: T8, rHuman CD44/Fc Chimera, CF (R&D Systems Cat#3660-CD) (human, UniProt P16070 21-220); test: as above
T8 construct: Bought from R&D Systems; Fc part of the bought chimera not given

[9] = target: T9, rHuman ErbB2/Fc Chimera, CF (R&D Systems Cat#1129-ER) (human, UniProt P04626 23-652); test: as above
T9 construct: Bought from R&D Systems; also called human epidermal growth factor 2 receptor; Fc part of the bought chimera not given

[10] = target: T10, Recombinant Human DLL4 (delta-like protein 4) (human, UniProt Q9NR61 27-524); test: ECL (MSD) multispot binding assay, DLL4 immobilized, Fab in solution
T10 construct: Bought recombinant protein (R&D Systems Cat#1506-D4/CF); also called rHuman DLL4; Delta-like 4

[11] = target: T10, Recombinant Human DLL4 (delta-like …); test: ELISA, DLL4 coated on plate, Fab in solution, absorbance at 450 nm
rHuman ErbB2/Fc Chimera = rHuman ErbB2/Fc Chimera (human, UniProt P04626 23-652); test: ECL multispot (MSD) binding assay; antigen spotted on plate, Fab in solution;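 further: purified Fab bound for 1 h at 20 °C, detected with a TAG-labelled antibody, electrochemiluminescence compared with each well's blank, signal-to-blank ratio of at least 4 scored as hit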
[12] = target: T11, rHuman HGF R/c-MET/Fc Chimera (human, UniProt P08581 25-932); test: as above
T11 construct: also called HGF R/Fc

[13] = target: T12, rHuman Erythropoietin R/Fc Chimera (human, UniProt P19235 25-250); test: as above
T12 construct: also called EPO R; EPO R/Fc
T12 sequence (looked up): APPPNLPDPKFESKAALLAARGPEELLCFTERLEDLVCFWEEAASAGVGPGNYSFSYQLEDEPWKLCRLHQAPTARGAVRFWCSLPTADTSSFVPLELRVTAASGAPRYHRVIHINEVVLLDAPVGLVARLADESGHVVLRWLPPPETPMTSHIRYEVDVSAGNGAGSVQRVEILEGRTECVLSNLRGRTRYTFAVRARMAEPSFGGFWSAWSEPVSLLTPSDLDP

rHuman CD44/Fc Chimera = rHuman CD44/Fc Chimera (human, UniProt P16070 21-220); test: as above
[14] = target: T13, rHuman P-Cadherin/Fc Chimera (human, UniProt P22223 108-654); test: as above
T13 construct: Bought from R&D Systems (Cat#861-PC)

rHuman EGF R/Fc Chimera = rHuman EGF R/Fc Chimera (human, UniProt P00533 25-645); test: as above
[15] = target: T14, rHuman Notch-1/Fc Chimera (human, UniProt P46531 19-526); test: as above
T14 construct: Bought from R&D Systems (Cat#3647-TK)

[16] = target: rHuman IGF-1 sR (insulin-like growth factor-1 soluble receptor) (human, UniProt P08069 31-932); test: as above

T11 sequence (P08581 25-932, change not shown): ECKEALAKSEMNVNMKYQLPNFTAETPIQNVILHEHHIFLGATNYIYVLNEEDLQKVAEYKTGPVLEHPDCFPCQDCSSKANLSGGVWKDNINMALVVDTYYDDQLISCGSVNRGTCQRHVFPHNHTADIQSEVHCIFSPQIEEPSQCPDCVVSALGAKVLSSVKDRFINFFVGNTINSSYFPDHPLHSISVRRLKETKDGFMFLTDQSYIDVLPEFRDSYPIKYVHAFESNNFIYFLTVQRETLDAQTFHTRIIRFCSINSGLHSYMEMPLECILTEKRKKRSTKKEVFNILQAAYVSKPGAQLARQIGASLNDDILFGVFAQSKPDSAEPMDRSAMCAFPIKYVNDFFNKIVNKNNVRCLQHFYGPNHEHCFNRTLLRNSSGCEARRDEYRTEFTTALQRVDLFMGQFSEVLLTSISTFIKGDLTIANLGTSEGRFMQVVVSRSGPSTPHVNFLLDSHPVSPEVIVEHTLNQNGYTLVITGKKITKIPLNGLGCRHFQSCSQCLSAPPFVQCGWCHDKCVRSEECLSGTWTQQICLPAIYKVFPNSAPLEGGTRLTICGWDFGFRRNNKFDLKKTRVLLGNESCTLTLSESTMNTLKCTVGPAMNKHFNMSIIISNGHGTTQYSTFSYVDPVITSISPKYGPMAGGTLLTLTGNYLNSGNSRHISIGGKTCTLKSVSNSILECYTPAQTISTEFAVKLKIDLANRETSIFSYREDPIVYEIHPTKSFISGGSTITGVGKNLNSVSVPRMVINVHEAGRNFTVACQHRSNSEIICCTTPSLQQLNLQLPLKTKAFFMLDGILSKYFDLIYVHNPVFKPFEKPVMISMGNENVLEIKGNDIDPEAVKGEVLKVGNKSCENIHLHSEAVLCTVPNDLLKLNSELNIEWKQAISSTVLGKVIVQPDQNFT
T2 sequence (P08581 25-932, change not shown): as above

- ECL signal [1]: 377
- ECL signal [2]: 358
- ECL signal [3]: 268
- ECL signal [4]: 176000
- ECL signal [5]: 507
- ECL signal [6]: 262
- ECL signal [7]: 427
- ECL signal [8]: 235
- ECL signal [9]: 253
B1: Fab VH1-46_IGHD6-6*01_IGHJ1*01 S102A/S103P/S104F/H111F S31A & L6_IGKJ1*01 (Fab, V domains shown)
VH: QVQLVQSGAEVKKPGASVKVSCKASGYTFTAYYMHWVRQAPGQGLEWMGIINPSGGSTSYAQKFQGRVTMTRDTSTSTVYMELSSLRSEDTAVYYCAREEYAPFSAEYFQFWGQGTLVTVSS
VL: not shown
notes: Tested as a Fab made in E. coli; The heavy chain vector (Plasmid A) adds CH1 with His6 and Flag tags; The light chain vector (Plasmid C) adds kappa CL; also called APFF S31A

- ECL Signal/Noise [10]: 218
- ELISA (Signal-Noise) [11]: 0.36
B2: Fab VH1-46_IGHD6-6*01_IGHJ1*01 S102A/S103P/S104F/H111F (H:APFF) & L6_IGKJ1*01 S76E (Fab, V domains shown)
VH: QVQLVQSGAEVKKPGASVKVSCKASGYTFTSYYMHWVRQAPGQGLEWMGIINPSGGSTSYAQKFQGRVTMTRDTSTSTVYMELSSLRSEDTAVYYCAREEYAPFSAEYFQFWGQGTLVTVSS
VL: EIVLTQSPATLSLSPGERATLSCRASQSVSSYLAWYQQKPGQAPRLLIYDASNRATGIPARFSGSGSGTDFTLTIESLEPEDFAVYYCQQRSNWPPWTFGQGTKVEIKR
notes: Tested as Fab expressed in E. coli; VH was cloned into Plasmid A (CH1 constant region, His6 and Flag tags) and the kappa VL into Plasmid C (kappa CL)

- ECL Signal/Noise [10]: 187
- ELISA (Signal-Noise) [11]: 0.32
B3: Fab VH1-46_IGHD6-6*01_IGHJ1*01 S102A/S103P/S104F/H111F (H:APFF) & L6_IGKJ1*01 S76Q (Fab, V domains shown)
VH: QVQLVQSGAEVKKPGASVKVSCKASGYTFTSYYMHWVRQAPGQGLEWMGIINPSGGSTSYAQKFQGRVTMTRDTSTSTVYMELSSLRSEDTAVYYCAREEYAPFSAEYFQFWGQGTLVTVSS
VL: EIVLTQSPATLSLSPGERATLSCRASQSVSSYLAWYQQKPGQAPRLLIYDASNRATGIPARFSGSGSGTDFTLTIQSLEPEDFAVYYCQQRSNWPPWTFGQGTKVEIKR
notes: as for B2

- ECL signal (rHuman ErbB2/Fc Chimera): 242
- ECL signal [12]: 243
- ECL signal [13]: 314
- ECL signal (rHuman CD44/Fc Chimera): 336
- ECL signal [14]: 271
- ECL signal (rHuman EGF R/Fc Chimera): 293
- ECL signal [15]: 407
- ECL signal [16]: 312
B4: Fab VH1-46_IGHD6-6*01_IGHJ1*01 S102A/S103P/S104F/H111F (APFF) & L6_IGKJ1*01 S92N (Fab, V domains shown)
VH: QVQLVQSGAEVKKPGASVKVSCKASGYTFTSYYMHWVRQAPGQGLEWMGIINPSGGSTSYAQKFQGRVTMTRDTSTSTVYMELSSLRSEDTAVYYCAREEYAPFSAEYFQFWGQGTLVTVSS
VL: EIVLTQSPATLSLSPGERATLSCRASQSVSSYLAWYQQKPGQAPRLLIYDASNRATGIPARFSGSGSGTDFTLTISSLEPEDFAVYYCQQRNNWPPWTFGQGTKVEIKR
notes: Tested as Fab (CH1 with His6/Flag tags from Plasmid A; kappa CL from Plasmid C); also called APFF / S92N

- ECL Signal/Noise [10]: 100
- ELISA (Signal-Noise) [11]: 0.29
B5: Fab VH1-46_IGHD6-6*01_IGHJ1*01 S102A/S103P/S104F/H111F (H:APFF) & L6_IGKJ1*01 S76P (Fab, V domains shown)
VH: QVQLVQSGAEVKKPGASVKVSCKASGYTFTSYYMHWVRQAPGQGLEWMGIINPSGGSTSYAQKFQGRVTMTRDTSTSTVYMELSSLRSEDTAVYYCAREEYAPFSAEYFQFWGQGTLVTVSS
VL: EIVLTQSPATLSLSPGERATLSCRASQSVSSYLAWYQQKPGQAPRLLIYDASNRATGIPARFSGSGSGTDFTLTIPSLEPEDFAVYYCQQRSNWPPWTFGQGTKVEIKR
notes: as for B2
